{
  "source": "patent US20180326005A1",
  "about": "(HEAT BIOLOGICS, published 2018)",
  "key": {"[1]": {"target": "polyhistidine-tagged recombinant human CD47 (human) (UniProt Q08722)", "sequence (Q08722 19-139 limits assumed)": "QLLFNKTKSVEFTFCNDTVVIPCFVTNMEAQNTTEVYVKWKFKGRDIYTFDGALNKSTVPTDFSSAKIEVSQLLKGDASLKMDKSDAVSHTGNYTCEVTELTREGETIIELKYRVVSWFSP", "assay": "SPR summary table, row group CD47"}, "neonatal receptor FcRn [2]": {"target": "T1, neonatal receptor FcRn (human, UniProt P55899 24-297; P61769 21-119)", "T1 construct": "also called recombinant human FcRn", "assay": "SPR summary table, row group FcRn"}, "human FcγR1A [3]": {"target": "T2, human FcγR1A (human, UniProt P12314 16-288)", "T2 construct": "also called recombinant human FcγR1A", "T2 sequence (P12314 16-288 limits assumed)": "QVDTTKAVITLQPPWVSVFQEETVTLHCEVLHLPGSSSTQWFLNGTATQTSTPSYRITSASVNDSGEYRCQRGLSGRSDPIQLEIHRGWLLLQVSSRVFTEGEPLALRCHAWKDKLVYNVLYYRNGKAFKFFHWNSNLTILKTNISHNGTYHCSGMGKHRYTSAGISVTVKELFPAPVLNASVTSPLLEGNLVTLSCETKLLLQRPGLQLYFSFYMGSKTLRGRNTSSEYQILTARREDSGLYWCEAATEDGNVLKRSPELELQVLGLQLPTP", "assay": "SPR summary table, row group FcγR1A"}, "[4]": {"target": "T3, human OX40 on cells (Jurkat/hOX40, activated human T cells) (human, UniProt P43489 29-277)", "T3 construct": "whole, on cells; also called Jurkat/OX40; cell surface expressed OX40", "T3 sequence (looked up)": "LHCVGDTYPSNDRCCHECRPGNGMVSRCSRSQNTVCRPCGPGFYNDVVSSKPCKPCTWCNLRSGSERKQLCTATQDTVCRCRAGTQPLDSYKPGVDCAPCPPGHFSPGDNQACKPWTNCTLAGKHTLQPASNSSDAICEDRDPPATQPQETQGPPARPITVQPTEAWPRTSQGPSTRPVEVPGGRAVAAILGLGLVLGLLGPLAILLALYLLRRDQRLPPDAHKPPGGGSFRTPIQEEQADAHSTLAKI", "assay": "flow cytometry, Jurkat-hOX40 against parental Jurkat cells, Fc-Fusions: PE-A"}, "[5]": {"target": "T4, polyhistidine-tagged recombinant human OX40 (human, UniProt P43489 29-216)", "T4 construct": "also called recombinant OX40-his; hOX40-his; not shown: polyhistidine tag", "T4 sequence (looked up)": "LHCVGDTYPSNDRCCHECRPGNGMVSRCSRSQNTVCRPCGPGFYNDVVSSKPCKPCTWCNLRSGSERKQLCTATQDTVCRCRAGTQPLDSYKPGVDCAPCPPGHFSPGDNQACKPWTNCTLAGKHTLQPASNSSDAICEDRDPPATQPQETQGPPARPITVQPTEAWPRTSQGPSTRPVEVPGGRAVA", "assay": "SPR summary table, row group OX40", "text": "(§1) Specifically, polyhistidine-tagged versions of recombinant human PD-L1, PD-L2 and human OX40 was bound to ProteOn HTG tris-NTA chips (BIORAD)."}, "[6]": {"target": "T4, polyhistidine-tagged recombinant human …", "assay": "SPR summary table, row group OX40", "text": "as §1", "remark": "listed apart in the source"}, "[7]": {"target": "T4, polyhistidine-tagged recombinant human …", "assay": "SPR summary table, row group OX40", "text": "(§2) Specifically, polyhistidine-tagged versions of recombinant human CD47 and human OX40 was bound to ProteOn HTG tris-NTA chips (BIORAD).", "remark": "listed apart in the source"}, "mouse PD-1-Fc": {"target": "T5, mouse PD-1-Fc (mouse, UniProt Q02242 25-169; P01868 98-324 = IgG part, limits assumed)", "T5 construct": "extracellular domain;domain: Fc; Control construct, tested as CHO-K1 culture medium; also called mPD-1-Fc; recombinant mouse PD1-Fc", "T5 sequence (Q02242 other isoform, or with tags, fused parts or gaps limits assumed)": "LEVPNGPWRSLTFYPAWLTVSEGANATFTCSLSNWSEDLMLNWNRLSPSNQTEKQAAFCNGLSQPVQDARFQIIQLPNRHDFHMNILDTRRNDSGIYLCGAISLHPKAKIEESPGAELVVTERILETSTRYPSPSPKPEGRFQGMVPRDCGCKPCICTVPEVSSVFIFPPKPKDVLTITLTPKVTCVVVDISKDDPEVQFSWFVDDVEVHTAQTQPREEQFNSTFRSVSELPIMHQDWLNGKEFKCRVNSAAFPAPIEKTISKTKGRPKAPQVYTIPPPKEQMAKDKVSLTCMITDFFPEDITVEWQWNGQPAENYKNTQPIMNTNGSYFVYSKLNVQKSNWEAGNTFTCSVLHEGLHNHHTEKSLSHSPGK", "assay": "ELISA: plate-bound mOX40-hFc, two-fold dilutions of CHO-K1 culture medium, detection with rabbit anti-mPD-1 and anti-rabbit IgG-HRP", "text": "(§3) A rabbit polyclonal antibody to mPD-1 was used to detect the mPD-1 domain in the chimeric protein and subsequently detected using a horseradish peroxidase (HRP)-conjugated polyclonal antibody to rabbit IgG (H+L).\nas §3, with “(H+L). […] A horseradish peroxidase (HRP)-conjugated polyclonal antibody to mouse IgG (H+L) was used for the detection of the bound proteins.” for “(H+L).”"}, "FcγR2B": {"target": "T6, FcγR2B (human, UniProt P31994 46-217, limits assumed)", "T6 sequence (looked up)": "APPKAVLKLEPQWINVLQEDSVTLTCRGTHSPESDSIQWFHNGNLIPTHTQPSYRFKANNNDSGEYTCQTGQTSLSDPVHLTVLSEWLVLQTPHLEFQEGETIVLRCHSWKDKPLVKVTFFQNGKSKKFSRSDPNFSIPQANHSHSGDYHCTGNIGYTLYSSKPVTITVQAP", "assay": "SPR, chip-bound Fc receptor"}, "neonatal receptor FcRn [8]": {"target": "T1, neonatal receptor FcRn", "assay": "SPR, chip-bound Fc receptor"}, "neonatal receptor FcRn [9]": {"target": "T1, neonatal receptor FcRn", "assay": "SPR summary table, row group FcRn; the text gives 73 nM for this pair"}, "[10]": {"target": "human PD-L1 on cells (CHO-K1/hPD-L1, HCC827, PC3, HeLa-PD-L1) (human, UniProt Q9NZQ7 19-290)", "sequence (Q9NZQ7 19-290)": "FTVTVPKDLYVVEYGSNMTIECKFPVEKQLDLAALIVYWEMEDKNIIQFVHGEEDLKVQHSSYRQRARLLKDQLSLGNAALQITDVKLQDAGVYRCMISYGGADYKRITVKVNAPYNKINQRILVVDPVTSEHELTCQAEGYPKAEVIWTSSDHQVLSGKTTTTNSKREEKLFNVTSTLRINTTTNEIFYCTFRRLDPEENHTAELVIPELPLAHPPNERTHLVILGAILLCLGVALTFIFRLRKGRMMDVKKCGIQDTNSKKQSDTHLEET", "assay": "cell-based or functional assay"}, "[11]": {"target": "T7, polyhistidine-tagged recombinant human PD-L2 (human, UniProt Q9BQ51 20-219)", "T7 construct": "not shown: polyhistidine tag", "T7 sequence (looked up)": "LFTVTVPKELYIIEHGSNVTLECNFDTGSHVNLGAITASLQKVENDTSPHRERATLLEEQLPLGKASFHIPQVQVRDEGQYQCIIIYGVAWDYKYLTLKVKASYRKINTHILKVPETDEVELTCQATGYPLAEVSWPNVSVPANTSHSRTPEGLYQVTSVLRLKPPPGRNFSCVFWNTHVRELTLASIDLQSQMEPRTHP", "assay": "SPR summary table, row group PD-L2", "text": "as §1"}, "[12]": {"target": "T8, polyhistidine-tagged recombinant human PD-L1 (human, UniProt Q9NZQ7 19-239)", "T8 construct": "also called hPD-L1; not shown: polyhistidine tag", "T8 sequence (Q9NZQ7 19-239 limits assumed)": "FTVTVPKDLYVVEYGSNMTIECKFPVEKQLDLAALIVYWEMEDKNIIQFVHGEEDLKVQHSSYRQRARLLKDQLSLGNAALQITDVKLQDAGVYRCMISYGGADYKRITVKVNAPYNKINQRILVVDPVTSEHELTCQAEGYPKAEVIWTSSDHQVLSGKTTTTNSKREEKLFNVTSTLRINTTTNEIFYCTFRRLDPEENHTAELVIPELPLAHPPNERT", "assay": "SPR summary table, row group PD-L1", "text": "as §1"}, "[13]": {"target": "T4, polyhistidine-tagged recombinant human …", "assay": "SPR, his-tagged ligand on ProteOn HTG tris-NTA chip", "text": "as §1, §2"}, "[14]": {"target": "T8, polyhistidine-tagged recombinant human …", "assay": "SPR, his-tagged ligand on ProteOn HTG tris-NTA chip", "text": "as §1, §2"}, "[15]": {"target": "T7, polyhistidine-tagged recombinant human …", "assay": "SPR, his-tagged ligand on ProteOn HTG tris-NTA chip", "text": "as §1, §2"}, "human FcγR1A [16]": {"target": "T2, human FcγR1A", "assay": "SPR, chip-bound human FcγR1A, analyte in flow"}},
  "note": "Like-named read-outs stand apart in the source and are kept apart here.",
  "data": [
    {"molecule": "CD172a-Fc (Fc fusion)", "values": [
      {"measurement": "Kd", "setting": "[1]", "value": 3.16, "unit": "nM"},
      {"measurement": "koff", "setting": "[1]", "value": 0.00239, "unit": "s⁻¹"},
      {"measurement": "kon", "setting": "[1]", "value": 756000, "unit": "M⁻¹ s⁻¹"}
    ]},
    {"molecule": "human immunoglobulin IgG1 (antibody)", "values": [
      {"measurement": "Kd", "setting": "neonatal receptor FcRn [2]", "value": 4.87, "unit": "nM"},
      {"measurement": "koff", "setting": "neonatal receptor FcRn [2]", "value": 0.0046, "unit": "s⁻¹"},
      {"measurement": "kon", "setting": "neonatal receptor FcRn [2]", "value": 945000, "unit": "M⁻¹ s⁻¹"},
      {"measurement": "Kd", "setting": "human FcγR1A [3]", "value": 17.7, "unit": "nM"},
      {"measurement": "koff", "setting": "human FcγR1A [3]", "value": 0.00044, "unit": "s⁻¹"},
      {"measurement": "kon", "setting": "human FcγR1A [3]", "value": 24900, "unit": "M⁻¹ s⁻¹"}
    ]},
    {"molecule": "human PD1-Fc-TL1A (Fc fusion, The entry includes the native leader; no cleavage site is stated; also called hPD1-Fc-TL1A) LDSPDRPWNPPTFSPALLVVTEGDNATFTCSFSNTSESFVLNWYRMSPSNQTDKLAAFPEDRSQPGQDCRFRVTQLPNGRDFHMSVVRARRNDSGTYLCGAISLAPKAQIKESLRAELRVTERRAEVPTAHPSPSPRPAGQFQSKYGPPCPSCPAPEFLGGPSVFLFPPKPKDTLMISRTPEVTCVVVDVSQEDPEVQFNWYVDGVEVHNAKTKPREEQFNSTYRVVSVLTVLHQDWLSGKEYKCKVSSKGLPSSIEKTISNATGQPREPQVYTLPPSQEEMTKNQVSLTCLVKGFYPSDIAVEWESNGQPENNYKTTPPVLDSDGSFFLYSRLTVDKSSWQEGNVFSCSVMHEALHNHYTQKSLSLSLGKIEGRMDRAQGEACVQFQALKGQEFAPSHQQVYAPLRADGDKPRAHLTVVRQTPTQHFKNQFPALHWEHELGLAFTKNRMNYTNKFLLIPESGDYFIYSQVTFRGMTSECSEIRQAGRPNKPDSITVVITKVTDSYPEPTQLLMGTKSVCEVGSNWFQPIYLGAMFSLQEGDKLMVNVSDISLVDYTKEDKTFFGAFLL", "values": [
      {"measurement": "binding result", "setting": "[4]", "value": "no binding"}
    ]},
    {"molecule": "recombinant human OX40L-Fc (Fc fusion, UniProt P23510 51-183, looked up, Positive control in SPR; not shown: Fc) QVSHRYPRIQSIKVQFTEYKKEKGFILTSQKEDEIMKVQNNSVIINCDGFYLISLKGYFSQEVNISLHYQKDEEPLFQLKKVRSVNSLMVASLTYKDKVYLNVTTDNTSLDDFHVNGGELILIHQNPGEFCVL", "values": [
      {"measurement": "Kd", "setting": "[5]", "value": 9.28, "unit": "nM"},
      {"measurement": "koff", "setting": "[5]", "value": 0.00069, "unit": "s⁻¹"},
      {"measurement": "Kd", "setting": "[6]", "value": 9.28, "unit": "nM"},
      {"measurement": "koff", "setting": "[6]", "value": 0.00069, "unit": "s⁻¹"},
      {"measurement": "Kd", "setting": "[7]", "value": 9.28, "unit": "nM"},
      {"measurement": "koff", "setting": "[7]", "value": 0.00069, "unit": "s⁻¹"}
    ]},
    {"molecule": "recombinant mOX40 fused to human Fc (Fc fusion, mouse, UniProt P47741 20-211, looked up, also called mOX40-hFc; not shown: human Fc) VTARRLNCVKHTYPSGHKCCRECQPGHGMVSRCDHTRDTLCHPCETGFYNEAVNYDTCKQCTQCNHRSGSELKQNCTPTQDTVCRCRPGTQPRQDSGYKLGVDCVPCPPGHFSPGNNQACKPWTNCTLSGKQTRHPASDSLDAVCEDRSLLATLLWETQRPTFRPTTVQSTTVWPRTSELPSPPTLVTPEGP", "values": [
      {"measurement": "binding result", "setting": "mouse PD-1-Fc", "value": "no binding (tested: 1:1 (undiluted culture medium))"}
    ]},
    {"molecule": "SL-279252 (human PD-1-Fc-OX40L) (Fc fusion, Glycosylated; about 50% of the non-reduced protein ran as a dimer; also called hPD-1-Fc-OX40L) LDSPDRPWNPPTFSPALLVVTEGDNATFTCSFSNTSESFVLNWYRMSPSNQTDKLAAFPEDRSQPGQDCRFRVTQLPNGRDFHMSVVRARRNDSGTYLCGAISLAPKAQIKESLRAELRVTERRAEVPTAHPSPSPRPAGQFQSKYGPPCPSCPAPEFLGGPSVFLFPPKPKDTLMISRTPEVTCVVVDVSQEDPEVQFNWYVDGVEVHNAKTKPREEQFNSTYRVVSVLTVLHQDWLSGKEYKCKVSSKGLPSSIEKTISNATGQPREPQVYTLPPSQEEMTKNQVSLTCLVKGFYPSDIAVEWESNGQPENNYKTTPPVLDSDGSFFLYSRLTVDKSSWQEGNVFSCSVMHEALHNHYTQKSLSLSLGKIEGRMDQVSHRYPRIQSIKVQFTEYKKEKGFILTSQKEDEIMKVQNNSVIINCDGFYLISLKGYFSQEVNISLHYQKDEEPLFQLKKVRSVNSLMVASLTYKDKVYLNVTTDNTSLDDFHVNGGELILIHQNPGEFCVL", "values": [
      {"measurement": "binding result", "setting": "FcγR2B", "value": "no binding"},
      {"measurement": "Kd", "setting": "neonatal receptor FcRn [8]", "value": 73, "unit": "nM"},
      {"measurement": "koff", "setting": "neonatal receptor FcRn [2]", "value": 0.00234, "unit": "s⁻¹"},
      {"measurement": "kon", "setting": "neonatal receptor FcRn [2]", "value": 255000, "unit": "M⁻¹ s⁻¹"},
      {"measurement": "koff", "setting": "[5]", "value": "1.9e-05", "unit": "s⁻¹"},
      {"measurement": "kon", "setting": "[5]", "value": 77300, "unit": "M⁻¹ s⁻¹"},
      {"measurement": "Kd", "setting": "neonatal receptor FcRn [9]", "value": 9.17, "unit": "nM"},
      {"measurement": "increase in IL-2 from baseline (no SL-279252) to 5 ug/mL of SL-279252, T cell co-culture with HCC827 (PD-L1high)", "setting": "[10]", "value": 1.92, "unit": "fold"},
      {"measurement": "increase in IL-2 from baseline (no SL-279252) to 5 ug/mL of SL-279252, T cell co-culture with PC3 (PD-L1low)", "setting": "[10]", "value": 1.27, "unit": "fold"},
      {"measurement": "koff", "setting": "[11]", "value": "6.7e-05", "unit": "s⁻¹"},
      {"measurement": "kon", "setting": "[11]", "value": 54000, "unit": "M⁻¹ s⁻¹"},
      {"measurement": "koff", "setting": "[12]", "value": 0.000176, "unit": "s⁻¹"},
      {"measurement": "kon", "setting": "[12]", "value": 84500, "unit": "M⁻¹ s⁻¹"},
      {"measurement": "Kd", "setting": "[13]", "value": 0.246, "unit": "nM"},
      {"measurement": "Kd", "setting": "[14]", "value": 2.08, "unit": "nM"},
      {"measurement": "off-rate, fold slower than recombinant PD-1-Fc", "setting": "[14]", "value": "~20", "unit": "fold"},
      {"measurement": "Kd", "setting": "[15]", "value": 1.24, "unit": "nM"},
      {"measurement": "binding result", "setting": "human FcγR1A [16]", "value": "no binding (tested: 500 nM)"}
    ]}
  ]
}
